Consider two molecules from publication PMC10342849, “Feruloyl Esterase (LaFae) from Lactobacillus acidophilus: Structural Insights and Functional Characterization for Application in Ferulic Acid Production” (International Journal of Molecular Sciences, 2023).

Data set [1] deals with Feruloyl esterase (LaFae) from Lactobacillus acidophilus (Lactobacillus acidophilus). The data set is described as follows: SEC; gel filtration on HiPrep S-200R column in 20 mM Tris-HCl (pH 8.0), molecular weight from a standard curve of protein standards. (SEC sorts molecules by how far they enter the pores of the column.)
Data set [2] shares this target. As to the kind of experiment: AUC; 20 mM Tris-HCl (pH 8.0), ProteomeLab XL-A, sedimentation profile at 280 nm analysed with SEDFIT.
Substrate in the data set “purified protein”: CCCC(=O)Oc1ccc([N+](=O)[O-])cc1
The data set is described as follows: purified protein. Type of data set: biochemical, Lactobacillus acidophilus. To be noted: hydrolysis; His6-tagged enzyme.

The term stoichiometry N denotes the number of molecules, sites or subunits per partner or assembly. In turn, “Feruloyl esterase (LaFae) from Lactobacillus acidophilus (enzyme)” came in with a stoichiometry N in data set [1] of 2. In data set [2], this molecule registered a percent of the sample in the dimer peak of 95.3% and a stoichiometry N of 2.

B1: LaFae (Lactobacillus acidophilus NCFM) (protein)
chain: MSRITIERDGLTLVGDREEPFGEIYDMAILMHGFTANRNTPLLRQIADNLRDENVASVRFDFNGHGESDGAFEDMTVCNEIADAQKILEYVRTDPHVRNIFLVGHSQGGVVASMLAGLYPDIVKKVVLLAPAAQLKDDALNGDTQGATYNPEHIPAAIPFHGKKLGGFYLRTAQVLPIYEIAKHYTNPVSIIVGSNDQVVAPKYSKKYDEVYENSELHMVPDADHSFTGQYKDSAVDLTAEFLKPLF
notes: His6-tagged, pET-21a (BamHI/XhoI), E. coli BL21(DE3); dimer in solution; catalytic triad Ser106, Asp197, His225
What is called Km is the concentration of substrate that gives half-maximal velocity. For B1, in “purified protein”, the Km was determined as 1160 µM.
